Values of other authors as cited in paper PMC10586765.

Biological target: UBL4A (Homo sapiens) (UniProt P11441)
Assay: surface plasmon resonance

Sequence of UniProt P11441 (P11441 whole entry): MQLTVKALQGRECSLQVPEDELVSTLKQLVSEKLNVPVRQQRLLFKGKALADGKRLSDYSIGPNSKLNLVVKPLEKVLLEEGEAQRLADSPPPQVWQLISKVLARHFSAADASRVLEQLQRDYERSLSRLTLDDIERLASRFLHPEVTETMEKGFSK

Substance: BAG6 (from UniProt P46379)
- Kd: 2.2 nM
